Our source for the binding result and EC50 values is patent publication US20250019435A1 (ALBERT EINSTEIN COLLEGE OF MEDICINE, published 2025).

Assay [1] concerns the target T1, Y298F/Y328F.
T1 construct: also called KIR2DL5 Y298F/Y328F (ITIM and ITSM mutant) on transduced primary NK cells
In words: flow cytometry, transduced primary NK cells. The method, then:
(§1) The KIR2DL5⁻ primary NK cells were transduced with WT KIR2DL5 or the indicated mutants, and then examined for protein expression with F8B30 (open) or mIgG1 (shaded). NC, negative control. Data are representative of 2 independent experiments. (B and C) Transduced primary NK cells were treated with (+) or without (−) pervanadate (VO₄) for 5 minutes. Cell lysates were immunoprecipitated with anti-KIR2DL5 antibodies. Phospho-tyrosine (4G10), SHP-1, SHP-2, and total KIR2DL5 were detected by immunoblots (B). Quantification of p-Tyr, SHP-1, and SHP-2 association with WT or mutant KIR2DL5 in VO₄-treated NK cells (C). WCL, whole-cell lysates. (D) Representative imaging of cell conjugates acquired upon the indicated transduced primary NK and PVR/Raji cell contact followed by staining with anti-KIR2DL5 mAb and DAPI. Scale bars: […]. (E) Lysis of scramble control or PVR^KO A427 (top) and Jurkat (bottom) by WT or mutant KIR2DL5-transduced primary NK cells at the indicated E/T ratios. Data are mean for duplicate measurements and representative of 3 independent experiments with 3 different donors. In A, and B, data are representative of 3 independent experiments. *P<0.05, **P<0.01, ***P<0.001, ****P<0.0001, by 1-way ANOVA (C), or paired Student's t test (D).
(§2) Primary NK cell transduction. KIR2DL5 wild type and variants of ITIM/ITSM expressed on the surface of KIR2DL5⁻ primary NK cells were introduced by lentiviral transduction. Lentivirus was produced in HEK293T cells cotransfected with psPAX, pMD2.G, and a lentiviral backbone pSin vector (a gift from the Alec Zhang laboratory, Department of Physiology, University of Texas Southwestern Medical Center, Dallas, Texas, USA) containing the full-length gene sequence of KIR2DL5A*001 using jetPRIME reagents (Polyplus Transfection). Virus-containing supernatant was harvested 48-72 hours after transfection and filtered through a 0.45 µm filter. Non-tissue-culture-treated plates were coated with retronectin, and virus supernatant was then incubated on the surface of plates at 2,000 g for 120 minutes at 37° C. […]
In general terms: In flow cytometry, cells or beads pass a laser one at a time.

Assay [2] has as its target T2, Y298F.
T2 construct: also called KIR2DL5 Y298F (ITIM mutant) on transduced primary NK cells
The experiment in a line: flow cytometry, transduced primary NK cells. How it is done: as §1, §2

The target in assay [3] is T3, Y328F.
T3 construct: also called KIR2DL5 Y328F (ITSM mutant) on transduced primary NK cells
T3 sequence (receptor chain, as listed by the source Y328F Y328F limits assumed): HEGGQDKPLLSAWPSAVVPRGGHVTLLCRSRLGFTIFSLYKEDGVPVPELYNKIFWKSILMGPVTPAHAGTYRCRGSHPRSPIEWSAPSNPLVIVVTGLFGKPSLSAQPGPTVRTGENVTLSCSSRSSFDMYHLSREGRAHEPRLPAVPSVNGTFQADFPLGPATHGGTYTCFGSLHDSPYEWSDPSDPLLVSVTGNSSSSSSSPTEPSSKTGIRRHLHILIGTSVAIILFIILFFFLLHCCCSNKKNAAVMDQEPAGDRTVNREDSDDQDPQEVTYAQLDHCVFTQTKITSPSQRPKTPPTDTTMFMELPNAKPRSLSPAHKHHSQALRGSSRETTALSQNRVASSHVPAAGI
In words: flow cytometry, transduced primary NK cells. The method, then:
as §1, §2

The target of assay [4] is T4, KIR2DL5 wild type (KIR2DL5A*001) expressed on cells (human, UniProt Q8N109 22-375).
T4 construct: UniProtKB Q8N109 and NP_065396.1 are printed for this entry; In the SHP-1/SHP-2 co-immunoprecipitation the cells were treated with pervanadate and the receptor was tyrosine-phosphorylated; also called KIR2DL5/3T3; WT KIR2DL5
The experiment in a line: flow cytometry, blocking: KIR2DL5/3T3 cells preincubated with serial F8B30, then 20 µg/mL PVR-Ig. The method, then: Specifically, a cell-based binding assay was performed by incubating PVR-Ig fusion protein with KIR2DL5- or KIR2DL4-expressing 3T3 cells. Conversely, KIR2DL5 was selectively bound by PVR, but not by CD112 (also known as nectin-2), another ligand for TIGIT and DNAM-1 in the nectin/nectin-like family (FIG. 10A). Furthermore, anti-KIR2DL5 mAb F8B30 blocked KIR2DL5-PVR interaction (EC₅₀=0.095 μM) (FIG. 10B). The specificity of KIR2DL5 binding to PVR was also evidenced by an intercellular interaction assay, in which 3T3 cells expressing PVR interacted with 3T3 cells expressing KIR2DL5, but not with cells expressing KIR3DL3 (FIG. 18B), a newly identified inhibitory receptor of HHLA2 (Zang, 2022; Wei 2021; Bhatt 2021).
Fusion protein cell binding assays. PVR-Ig, CD112-Ig, or hIgG (R&D Systems) was incubated with corresponding 3T3 cells on ice for 45 minutes, followed by incubation with APC- or PE-conjugated anti-human IgG Fc antibody (1:100; clone HP6017, BioLegend) on ice for 30 minutes. Cells were then acquired on an LSR II flow cytometer (BD Biosciences). In the anti-KIR2DL5 mAb blocking assay, KIR2DL5/3T3 cells were preincubated with a serial concentration of anti-KIR2DL5 mAb F8B30 or mIgG1 on ice for 30 minutes. After washing, the cells were then incubated with 20 μg/mL PVR-Ig or hIgG on ice for 45 minutes, followed by incubation with APC anti-human IgG Fc antibody on ice for 30 minutes. […]

Assay [5] concerns the target T5, KIR2DL5A*005 allele expressed on 3T3 cells (human).
T5 construct: also called 2D5A*005
In words: flow cytometry, transduced 3T3 cells, mAb 5 µg/mL. The method, then: FIG. 8A-8D: Generation and characterization of anti-KIR2DL5-specific mAbs. (A) The specificity of anti-KIR2DL5 mAb clone F8B30. 3T3 cells transduced with indicated KIR family members were stained with 5 μg/mL of F8B30 (open) or mIgG1 (shaded). (B) 3T3 cells transduced with DO-deleted (KIR2DL5 dD0) or D2-deleted KIR2DL5 (KIR2DL5 dD2) were stained with 5 μg/mL of clone F8B30 or commercial clone UP-R1. (C) Anti-KIR2DL5 mAb clone F8B30 recognized different KIR2DL5A and 5B alleles. 3T3 cells transduced with indicated alleles were stained with 5 μg/mL of F8B30 or UP-R1 (open) or mIgG1 (shaded). (D) Anti-KIR2DL5 mAb clone F8B30 recognized different KIR2DL5 DO domain variants. 3T3 cells transduced with indicated DO variants were stained with 0.025 μg/mL of F8B30 or UP-R1 (open) or mIgG1 (shaded). In A-D, data are representative of 2 independent experiments.

T5 sequence (chain, as listed by the source): as the sequence (receptor chain, as listed by the source Y328F Y328F limits assumed) above, with N152D, G174S, F307Y counted along it
T1 sequence (receptor chain, as listed by the source Y298F Y328F Y298F Y328F limits assumed): as the sequence (receptor chain, as listed by the source Y328F Y328F limits assumed) above, with Y277F counted along it
T2 sequence (receptor chain, as listed by the source Y298F Y298F limits assumed): as the sequence (receptor chain, as listed by the source Y328F Y328F limits assumed) above, with Y277F, F307Y counted along it

B1: anti-KIR2DL5 mAb clone F8B30 (antibody, V domains shown)
VH: QIQLVQSGPELKKPGETVKISCKASGYTFTDYSMHWVKQAPGKGLKWMGWINTETGGPTYADDFKGRFAFSLETSATTAYLQINNLKNEDTATYFCSRDVDLYFDYWGQGTTLTVS
VL: DIQMTQSPASLSASVGETVTITCRTSENIYSYLAWYQQKQGKSPQLLVYNAKTLVEGVPSRFSGSGSGTQFSVKINSLQPEDFGNYYCQHHYGIPFTFGGGTKLEIK
notes: also called F8B30 (IgG1, κ)
Consider B1, for which the binding result in assay [1], in assay [2], in assay [3] and in assay [5] was “binds” each time. This molecule gave an EC50 in assay [4] of 95 nM.

As usually defined, the EC50 is the midpoint of the concentration-response curve.
